Assay results reported in publication PMC3814787, “Potential Regulatory Interactions of Escherichia coli RraA Protein with DEAD-box Helicases* ^([image sbox.jpg])” (The Journal of Biological Chemistry, 2013).

T1: DEAD-box helicase DbpA (Escherichia coli, UniProt P21693 1-457)
T1 construct: DbpA, DEAD-box RNA helicase, Escherichia coli; monomer of 49 kDa as printed; source: E. coli BL21(DE3), purified (ammonium sulfate precipitation, heparin column)
T1 sequence (looked up): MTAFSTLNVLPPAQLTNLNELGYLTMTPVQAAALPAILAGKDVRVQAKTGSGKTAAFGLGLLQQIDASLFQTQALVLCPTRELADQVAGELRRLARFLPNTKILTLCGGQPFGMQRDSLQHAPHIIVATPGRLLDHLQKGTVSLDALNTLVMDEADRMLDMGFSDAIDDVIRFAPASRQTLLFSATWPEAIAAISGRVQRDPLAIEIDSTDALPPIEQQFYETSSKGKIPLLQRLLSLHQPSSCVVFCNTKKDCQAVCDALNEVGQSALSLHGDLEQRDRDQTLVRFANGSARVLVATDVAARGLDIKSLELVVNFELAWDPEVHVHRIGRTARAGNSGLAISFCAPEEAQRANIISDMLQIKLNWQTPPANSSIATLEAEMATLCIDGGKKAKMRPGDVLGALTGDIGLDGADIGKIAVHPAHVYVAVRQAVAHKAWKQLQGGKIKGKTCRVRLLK

T2: DEAD-box helicase RhlE (Escherichia coli, UniProt P25888 1-454)
T2 construct: RhlE, DEAD-box RNA helicase, Escherichia coli; source: E. coli BL21(DE3), purified (ammonium sulfate precipitation, heparin column)
T2 sequence (looked up): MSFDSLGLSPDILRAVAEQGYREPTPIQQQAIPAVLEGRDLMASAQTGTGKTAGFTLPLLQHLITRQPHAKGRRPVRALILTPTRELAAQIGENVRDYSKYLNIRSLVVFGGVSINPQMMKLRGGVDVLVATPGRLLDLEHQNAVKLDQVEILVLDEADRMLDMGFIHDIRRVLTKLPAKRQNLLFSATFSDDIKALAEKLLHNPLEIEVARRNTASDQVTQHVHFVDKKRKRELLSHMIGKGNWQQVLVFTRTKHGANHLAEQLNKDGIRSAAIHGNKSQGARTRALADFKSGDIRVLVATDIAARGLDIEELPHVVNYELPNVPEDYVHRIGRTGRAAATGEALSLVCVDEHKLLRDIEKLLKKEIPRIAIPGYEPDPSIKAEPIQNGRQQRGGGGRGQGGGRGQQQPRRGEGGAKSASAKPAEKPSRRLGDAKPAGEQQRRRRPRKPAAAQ

B1: Regulator of ribonuclease activity A (RraA) (natural protein, Escherichia coli)
chain: MKYDTSELCDIYQEDVNVVEPLFSNFGGRASFGGQIITVKCFEDNGLLYDLLEQNGRGRVLVVDGGGSVRRALVDAELARLAVQNEWEGLVIYGAVRQVDDLEELDIGIQAMAAIPVGAAGEGIGESDVRVNFGGVTFFSGDHLYADNTGIILSEDPLDIE
notes: RraA, regulator of ribonuclease activity A, Escherichia coli; ring-shaped homotrimer (52 kDa); residues 2-159 modelled in the crystal; Trimer at 150 mM NaCl; about 100 kDa (hexamer) at 300 mM NaCl
B2: DEAD-box helicase RhlB (enzyme, Escherichia coli, UniProt P0A8J8 1-421, looked up)
chain: MSKTHLTEQKFSDFALHPKVVEALEKKGFHNCTPIQALALPLTLAGRDVAGQAQTGTGKTMAFLTSTFHYLLSHPAIADRKVNQPRALIMAPTRELAVQIHADAEPLAEATGLKLGLAYGGDGYDKQLKVLESGVDILIGTTGRLIDYAKQNHINLGAIQVVVLDEADRMYDLGFIKDIRWLFRRMPPANQRLNMLFSATLSYRVRELAFEQMNNAEYIEVEPEQKTGHRIKEELFYPSNEEKMRLLQTLIEEEWPDRAIIFANTKHRCEEIWGHLAADGHRVGLLTGDVAQKKRLRILDEFTRGDLDILVATDVAARGLHIPAVTHVFNYDLPDDCEDYVHRIGRTGRAGASGHSISLACEEYALNLPAIETYIGHSIPVSKYNPDALMTDLPKPLRLTRPRTGNGPRRTGAPRNRRRSG
notes: RhlB, DEAD-box RNA helicase, Escherichia coli; monomer of 47 kDa as printed; The printed mass of 47 kDa fits the whole protein; 'full-length RhlB' is said only of the crystallisation trials
B3: CsdAΔ (truncated CsdA, residues 1 to 443) (domain or fragment, Escherichia coli, UniProt P0A9P6 1-443, looked up)
chain: MAEFETTFADLGLKAPILEALNDLGYEKPSPIQAECIPHLLNGRDVLGMAQTGSGKTAAFSLPLLQNLDPELKAPQILVLAPTRELAVQVAEAMTDFSKHMRGVNVVALYGGQRYDVQLRALRQGPQIVVGTPGRLLDHLKRGTLDLSKLSGLVLDEADEMLRMGFIEDVETIMAQIPEGHQTALFSATMPEAIRRITRRFMKEPQEVRIQSSVTTRPDISQSYWTVWGMRKNEALVRFLEAEDFDAAIIFVRTKNATLEVAEALERNGYNSAALNGDMNQALREQTLERLKDGRLDILIATDVAARGLDVERISLVVNYDIPMDSESYVHRIGRTGRAGRAGRALLFVENRERRLLRNIERTMKLTIPEVELPNAELLGKRRLEKFAAKVQQQLESSDLDQYRALLSKIQPTAEGEELDLETLAAALLKMAQGERTLIVPPD
notes: CsdA (DeaD), DEAD-box RNA helicase, Escherichia coli, residues 1 to 443, without the C-terminal extension; Vector pROEX-HT, gift of M. Dreyfus and T. Bizebard; also called CsdA (DeaD); source: E. coli BL21(DE3), purified (HisTrap FF)
B4: DEAD-box helicase SrmB (enzyme, Escherichia coli, UniProt P21507 1-444, looked up)
chain: MTVTTFSELELDESLLEALQDKGFTRPTAIQAAAIPPALDGRDVLGSAPTGTGKTAAYLLPALQHLLDFPRKKSGPPRILILTPTRELAMQVSDHARELAKHTHLDIATITGGVAYMNHAEVFSENQDIVVATTGRLLQYIKEENFDCRAVETLILDEADRMLDMGFAQDIEHIAGETRWRKQTLLFSATLEGDAIQDFAERLLEDPVEVSANPSTRERKKIHQWYYRADDLEHKTALLVHLLKQPEATRSIVFVRKRERVHELANWLREAGINNCYLEGEMVQGKRNEAIKRLTEGRVNVLVATDVAARGIDIPDVSHVFNFDMPRSGDTYLHRIGRTARAGRKGTAISLVEAHDHLLLGKVGRYIEEPIKARVIDELRPKTRAPSEKQTGKPSKKVLAKRAEKKKAKEKEKPRVKKRHRDTKNIGKRRKPSGTGVPPQTTEE
notes: SrmB, DEAD-box RNA helicase, Escherichia coli; monomer of 50 kDa as printed; only residues 219-388 (C-terminal RecA-like domain) are resolved in the crystal; source: E. coli BL21(DE3), purified (ammonium sulfate precipitation, heparin column)

Assays:
DEAD-box helicase SrmB = target: B4; test: AUC; sedimentation velocity, absorbance at 280 nm, 20 °C; 150 mM NaCl, 50 mM HEPES pH 7.5, 10% glycerol; mixtures at 1:1 helicase:RraA trimer, about 10 μM; details: both partners purified
DEAD-box helicase DbpA = target: T1, DEAD-box helicase DbpA; test: as above; details: both partners purified
[1] = target: the molecule itself; test: as above
DEAD-box helicase RhlE = target: T2, DEAD-box helicase RhlE; test: native gel or EMSA; 5% native polyacrylamide gel, Tris glycine running buffer with 1 mM DTT, 4 °C; helicase 10 μM and RraA 30 μM (2.5 and 7.5 μM for the mutants of Figure 3); bands of the complex cut out and analysed by SDS-PAGE; details: both partners purified
[2] = target: B3; test: as above; details: both partners purified
[3] = target: the molecule itself; test: crystal structure; RraA and RhlB(398-421) mixed at 1:20; 74.8 μM RraA, 1.48 mM peptide, 423 mM NaCl, 99 mM (NH4)2SO4; hanging drop, 16 °C; 100 mM sodium citrate pH 5.4, 32% methylpentanediol, 200 mM ammonium acetate; 2.8 Å
[4] = target: B1; test: AUC; sedimentation velocity, absorbance at 280 nm, 20 °C; 150 mM NaCl, 50 mM HEPES pH 7.5, 10% glycerol; mixtures at 1:1 helicase:RraA trimer, about 10 μM; details: both partners purified
[5] = target: the molecule itself; test: AUC; sedimentation velocity, 20 °C; 300 mM NaCl, 50 mM HEPES pH 7.5, 10% glycerol, 2 mM tris(2-carboxyethyl)phosphine; experiments with CsdAΔ; about 10 μM
[6] = target: B1; test: SAXS; SrmB and RraA mixed at a 1:3 molar ratio; 150 mM NaCl, 20 mM HEPES pH 7.0, 5% glycerol, 2 mM DTT; 15 °C; 5 to 55 μM; ab initio envelope; details: both partners purified

With B1 as the binder, how does the Kd (DEAD-box helicase SrmB) read?
The Kd was < 10 µM.

Does B1 bind (DEAD-box helicase DbpA)?
Result: binds

And the “stoichiometry N” value [1]?
The value was 3.

Does B1 bind (DEAD-box helicase RhlE)?
Result: binds

Does B1 bind [2]?
Result: binds

And the “stoichiometry N” value [3]?
Its value is 6.

With B2 as the binder, how does the “stoichiometry N” value [4] read?
The value was 1 helicase monomer per RraA trimer.

How did the “stoichiometry N” value [5] turn out when B3 was run?
Its value is 2.

For B4, which “stoichiometry N” value [4] is on record?
Its value is 1 helicase monomer per RraA trimer.

And the “stoichiometry N” value [6]?
The value was 1 SrmB per RraA trimer.
